# Source: patent publication US20130323249A1 (published 2013)
# B1: G12 anti-PD-L1 antibody (antibody, V domains shown)
# VH: EVQLVQSGAEVKKPGASVKVSCKASGYTFTGYYMHWVRQAPGQGLEWMGWINPNSDNTGSAQKFQGRVFMTKTTSLNTAYMELSGLRSEDTAIYYCARERSSGYFDFWGQGTLVTVSS
# VL: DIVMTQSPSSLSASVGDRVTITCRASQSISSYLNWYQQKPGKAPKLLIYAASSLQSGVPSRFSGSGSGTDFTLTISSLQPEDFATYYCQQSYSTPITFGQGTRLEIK
# notes: Fully human antibody of an IgG class; detected with anti-human IgG gamma-chain specific secondary; also called anti-PD-L1 mAb G12
# How the values were obtained:
# [1] = biological target: T1, human PD-L1 expressed on the surface of cells (human, UniProt Q9NZQ7 19-290); experiment: flow cytometry (Intellicyt HTFC) on ES-2 ovarian carcinoma cells treated with IFNγ for 18 hr, PE anti-human IgG detection
# T1 construct: whole, on cells; also called CHO-PD-L1; PD-L1 on ES-2 ovarian carcinoma cells
# T1 sequence (Q9NZQ7 19-290): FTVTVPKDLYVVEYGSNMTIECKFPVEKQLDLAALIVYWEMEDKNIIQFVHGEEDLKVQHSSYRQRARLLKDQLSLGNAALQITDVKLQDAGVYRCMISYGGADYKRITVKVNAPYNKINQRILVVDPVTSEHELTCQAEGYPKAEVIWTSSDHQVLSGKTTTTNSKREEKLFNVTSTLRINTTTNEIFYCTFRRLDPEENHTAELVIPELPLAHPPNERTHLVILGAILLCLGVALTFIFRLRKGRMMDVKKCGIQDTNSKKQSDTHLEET
# Procedure: (§1) After 0.5 hr incubation, cells were washed 1× with FACS Buffer and resuspended in 50 μl PE-conjugated, goat anti-human IgG (γ-chain specific) secondary antibody (Southern Biotech Cat #2040-09). Cells were further incubated for 0.5 hr and then washed 1× with FACS Buffer. Cells were resuspended in 25 μl FACS Buffer and the median fluorescence intensity in the FL2-H channel was determined using the Intellicyt HTFC flow cytometer.
# PD-L1/Fc = biological target: T2, PD-L1/Fc (human, UniProt Q9NZQ7 19-238, limits assumed); experiment: competition ELISA: G12 IgG pre-mixed with PD-L1/Fc, binding to coated PD1/His detected with anti-human Fc HRP
# T2 construct: also called rhPD-L1; not shown: Fc part (detected with anti-human Fc)
# T2 sequence (Q9NZQ7 19-238 limits assumed): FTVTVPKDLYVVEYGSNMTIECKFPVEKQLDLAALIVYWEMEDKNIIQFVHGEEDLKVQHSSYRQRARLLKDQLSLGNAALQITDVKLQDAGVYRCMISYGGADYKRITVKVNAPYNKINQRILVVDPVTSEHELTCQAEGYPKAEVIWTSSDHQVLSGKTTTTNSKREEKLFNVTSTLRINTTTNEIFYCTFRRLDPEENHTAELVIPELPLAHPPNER
# Procedure: A 96-well ELISA plate was coated with 1 ng/μL PD1/His at 4° C. overnight, then blocked with casein in PBS. […] Transferred 25 μl the mixtures to the ELISA plate and incubated 30 min with shaking. Washed 3 times with PBST. Added HRP conjugated Goat anti-human Fc (1:500 in casein), used TMB as substrate and developed 30 min. 2M H₂SO₄ was added to stop the reaction. Read the OD at 450 nm.
# [2] = biological target: T1, human PD-L1 expressed on the surface of …; experiment: flow cytometry (Intellicyt HTFC) on CHO-PD-L1 cells, PE anti-human IgG detection
# Procedure: as §1
# [3] = biological target: T1, human PD-L1 expressed on the surface of …; experiment: flow cytometry competition: CHO-PD-L1 cells pre-incubated with G12, then rhPD-1-Fc, detected with Alexa-Fluor 647 anti-PD-1 antibody
# Text: Data points are shown as the median fluorescence detected in the FL-4H channel +/− Std Error.
# rhPD-L1 = biological target: T3, rhPD-L1 (human, UniProt Q9NZQ7 19-238, limits assumed); experiment: Biacore SPR, rhPD-L1 immobilized on CM5 chip, antibody in solution, 1:1 Langmuir fit
# T3 construct: also called recombinant human PD-L1
# T3 sequence (Q9NZQ7 19-238 limits assumed): as above
# Procedure: All measurements were conducted in HBS-EP buffer with a flow rate of 30 μL/min. Antibody was diluted so as to obtain a series of concentrations. A 1:1 (Langmuir) binding model was used to fit the data.
binder,measurement,setting,value
B1,EC50,[1],0.0458 nM
same,IC50,PD-L1/Fc,0.0729 nM
same,EC50,[2],1.71 nM
same,IC50,[3],1.76 nM
same,Kd,rhPD-L1,0.0374 nM
same,koff,rhPD-L1,0.00049 s⁻¹
same,kon,rhPD-L1,1.31e+07 M⁻¹ s⁻¹
